Experimental data as given in paper PMC4600729.

Columns and labels:
[1] = biological target: T1, taxol-stabilized microtubules (polymer of alpha/beta-tubulin), immobilized; test: single-molecule TIRF microscopy; GFP-labelled motor (25 pM) in 1 mM ATP on immobilized taxol-stabilized microtubules; pause lifetimes at plus ends, exponential fit; BRB80 pH 6.8
[2] = biological target: dynamic microtubules growing from surface-immobilized GMPCPP seeds (polymer of alpha/beta-tubulin); test: TIRF microscopy; GFP-labelled motors (20-30 nM, or 50 pM for single molecules) on microtubules growing from immobilized GMPCPP seeds in 10 or 20 μM unlabelled tubulin, 1 mM ATP
[3] = biological target: T1, taxol-stabilized microtubules (polymer …); test: single-molecule TIRF microscopy; spiking experiment, crowded conditions: pM GFP-labelled motor mixed with 15-25 nM unlabelled motor; binding durations at plus ends of taxol-stabilized microtubules

T1 sequence (P68363 whole entry, chain 1 of 2): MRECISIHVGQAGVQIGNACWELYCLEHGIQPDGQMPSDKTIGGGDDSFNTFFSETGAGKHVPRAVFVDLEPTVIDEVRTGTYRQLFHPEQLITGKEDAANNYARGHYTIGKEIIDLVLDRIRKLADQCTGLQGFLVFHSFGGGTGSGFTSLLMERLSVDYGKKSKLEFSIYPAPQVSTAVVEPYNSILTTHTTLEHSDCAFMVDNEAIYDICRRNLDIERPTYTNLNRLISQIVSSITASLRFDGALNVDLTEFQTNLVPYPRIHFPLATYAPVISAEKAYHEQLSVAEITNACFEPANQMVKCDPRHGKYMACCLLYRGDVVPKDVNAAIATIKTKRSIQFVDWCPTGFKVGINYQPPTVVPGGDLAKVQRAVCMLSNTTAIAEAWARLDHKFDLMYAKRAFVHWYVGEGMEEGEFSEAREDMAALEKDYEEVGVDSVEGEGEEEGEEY
T1 sequence (A8K068 whole entry, chain 2 of 2, further chain): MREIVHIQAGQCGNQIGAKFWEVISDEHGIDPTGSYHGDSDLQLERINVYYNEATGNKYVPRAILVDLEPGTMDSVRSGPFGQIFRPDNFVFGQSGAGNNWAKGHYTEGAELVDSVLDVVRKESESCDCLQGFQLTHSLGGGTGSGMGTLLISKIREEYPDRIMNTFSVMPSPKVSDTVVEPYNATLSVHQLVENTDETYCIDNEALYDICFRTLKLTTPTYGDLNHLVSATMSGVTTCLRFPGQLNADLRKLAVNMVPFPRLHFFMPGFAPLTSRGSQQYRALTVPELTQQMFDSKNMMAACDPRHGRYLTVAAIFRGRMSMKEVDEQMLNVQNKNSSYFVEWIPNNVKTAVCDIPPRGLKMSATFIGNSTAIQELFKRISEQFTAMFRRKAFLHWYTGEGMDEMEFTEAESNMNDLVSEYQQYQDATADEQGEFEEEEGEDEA
Chain of dynamic microtubules growing from surface-immobilized GMPCPP seeds (polymer of alpha/beta-tubulin) (chain, as listed by the source, chain 1 of 2): as the sequence (P68363 whole entry, chain 1 of 2) above
Chain of dynamic microtubules growing from surface-immobilized GMPCPP seeds (polymer of alpha/beta-tubulin) (chain, as listed by the source, chain 2 of 2): as the sequence (A8K068 whole entry, chain 2 of 2, further chain) above

B1: Kin5_14GFP (dimeric kinesin-5 as Kin5_18 but with the neck linker shortened to 14 residues, GFP-tagged) (protein)
chain: MSSQNSFMASKKEDKGKNIQVVVRCRPFNQLERKASSHSVLECDSQRKEVYVRTGEVNDKLGKKTYTFDMVFGPAAKQIEVYRSVVCPILDEVIMGYNCTIFAYGQTGTGKTFTMEGERSSDEEFTWEQDPLAGIIPRTLHQIFEKLSENGTEFSVKVSLLEIYNEELFDLLSPSPDVGERLQMFDDPRNKRGVIIKGLEEISVHNKDEVYHILERGAARRKTASTLMNAYSSRSHSVFSVTIHMKETTVDGEELVKIGKLNLVDLAGSENIGRSGAVDKRAREAGNINQSLLTLGRVITALVERTPHIPYRESKLTRILQDSLGGRTKTSIIATVSPASINLEETVSTLDYANRAKSIMNKPEVNQKLTAEEWKRRYEKEKEKNARLKGKVEKLEIELARWRAGETVKAEEQINMEDLMEASTPNLEVEAAQTAAAEAALAAQRTALANMSASVAVNEQARLATECERLYQQLDDKDEEINQQSQYAEQLKEQVMEQEELIANARREYETLQSEMARIQQENESAKEEVKEVLQALEELAVNYDQKSQEIDNKNKDIDALNEELQQKQSVFNAASTELQQLKDM
modifications: not checked
With B1 the mean pause duration at plus ends [1] was 7.2 s, the mean residence time at dynamic plus ends [2] was 7.04 s and the end duration at plus ends under crowded conditions [3] was 2.61 s.
